We go through eleven molecules from patent publication US20130344085A1 (published 2013).

Where a chain is given by its changes, count along the chain named.

Sequences and labels used below:
B1: YW508.20.04b (antibody, V domains shown)
VH: EVQLVESGGGLVQPGGSLRLSCAASGFTFTGYAIHWVRQAPGKGLEWVARISPANGNTNYADSVKGRFTISADTSKNTAYLQMNSLRAEDTAVYYCARWIGSRELYIMDYWGQGTLVTVSS
VL: DIQMTQSPSSLSASVGDRVTITCRASQDVSTAVAWYQQKPGKAPKLLIYSASFLYSGVPSRFSGSGSGTDFTLTISSLQPEDFATYYCQQSYPAPATFGQGTKVEIK
B2: YW508.20.28b (antibody, V domains shown)
VH: B1 VH with G31R, Y32H, A33T, H35N
VL: B1 VL with P93R, A94I, P95Q, A96P
B3: YW508.20.33b (antibody, V domains shown)
VH: B1 VH with T30S, G31S, Y32T
VL: DIQMTQSPSSLSASVGDRVTITCRASQDVSTAVAWYQQKPGKAPKLLIYSASFLYSGVPSRFSGSGSGTDFTLTISSLQPEDFATYYCQQAYPALHTFGQGTKVEIKR
B4: YW508.20.84 (antibody, V domains shown)
VH: B1 VH
VL: B1 VL with A96S
B5: YW508.20.06 (antibody, V domains shown)
VH: B1 VH
VL: B1 VL with A94S
B6: anti-PCSK9 antibody 508.20.84 (antibody, V domains shown)
VH: B1 VH
VL: B1 VL with A96S
B7: anti-PCSK9 antibody 508.20.06 (antibody, V domains shown)
VH: B1 VH
VL: B1 VL with A94S
B8: anti-PCSK9 antibody 508.20.04b (antibody, V domains shown)
VH: B1 VH
VL: B1 VL
B9: YW508.20.33b reformatted into human IgG1 having a heavy chain with SEQ ID NO: 35 and a light chain with SEQ ID NO: 36 (antibody, V domains shown)
VH: B1 VH with T30S, G31S, Y32T
VL: B3 VL
B10: anti-PCSK9 antibody 508.20.28b (antibody, V domains shown)
VH: B1 VH with G31R, Y32H, A33T, H35N
VL: B1 VL with P93R, A94I, P95Q, A96P
B11: YW508.20b (antibody, V domains shown)
VH: B1 VH
VL: B1 VL with P93T, A94T, A96P

The first test has as its target murine PCSK9. Put plainly: BIAcore SPR.
Consider B1, for which the dissociation constant (Kd) came out at 0.117 nM.
As for B2, the affinity, expressed as Kd, was 0.323 nM.
B3 had a Kd of 0.0123 nM.
Take B4: binding was characterised by a dissociation constant (Kd) of 0.135 nM.
Consider B5, for which binding was put at a Kd of 0.201 nM.

The next test has as its target Human PCSK9 (Genbank EF692496) containing a histidine (His)8 C-terminal tag (UniProt Q8NBP7 31-692). Put plainly: BIAcore SPR.
For the molecule B6, binding was characterised by a dissociation constant (Kd) of 0.481 nM.
B7: the equilibrium dissociation constant (Kd) was 0.628 nM.
Regarding B8, the Kd came out at 0.757 nM.
The same measure, in the same setting: the value for B9 was 0.408 nM; that for B10 was 0.349 nM.

The target in a further test is biotinylated human PCSK9 (UniProt Q8NBP7 31-692, biotinylated (sites not given)). Put plainly: competition binding ELISA (PCSK9-LDLR).
Regarding B6, the IC50 came out at 1.39 nM.
B7 registered an IC50 of 1 nM.
The molecule B11 gave an IC50 of 15.2 nM.
Take B8: the IC50 worked out at 0.92 nM.
On the same count and under the same terms, the value for B9 was 1.31 nM; that for B10 was 1.05 nM.

The next test deals with Rat PCSK9. Nature of the test: BIAcore SPR.
B3: binding was put at a Kd of 0.0182 nM.

The target of another test is Cyno PCSK9. Put plainly: BIAcore SPR.
B3: the affinity, expressed as Kd, was 0.0624 nM.

Another test addresses rhesus PCSK9. Put plainly: BIAcore SPR.
B3: the Kd came to 4.09 nM.
